{"source": "paper PMC10997478", "key": {"[1]": {"biological_target": "T1, FEM1C (human) (UniProt Q96JP0)", "T1 sequence": "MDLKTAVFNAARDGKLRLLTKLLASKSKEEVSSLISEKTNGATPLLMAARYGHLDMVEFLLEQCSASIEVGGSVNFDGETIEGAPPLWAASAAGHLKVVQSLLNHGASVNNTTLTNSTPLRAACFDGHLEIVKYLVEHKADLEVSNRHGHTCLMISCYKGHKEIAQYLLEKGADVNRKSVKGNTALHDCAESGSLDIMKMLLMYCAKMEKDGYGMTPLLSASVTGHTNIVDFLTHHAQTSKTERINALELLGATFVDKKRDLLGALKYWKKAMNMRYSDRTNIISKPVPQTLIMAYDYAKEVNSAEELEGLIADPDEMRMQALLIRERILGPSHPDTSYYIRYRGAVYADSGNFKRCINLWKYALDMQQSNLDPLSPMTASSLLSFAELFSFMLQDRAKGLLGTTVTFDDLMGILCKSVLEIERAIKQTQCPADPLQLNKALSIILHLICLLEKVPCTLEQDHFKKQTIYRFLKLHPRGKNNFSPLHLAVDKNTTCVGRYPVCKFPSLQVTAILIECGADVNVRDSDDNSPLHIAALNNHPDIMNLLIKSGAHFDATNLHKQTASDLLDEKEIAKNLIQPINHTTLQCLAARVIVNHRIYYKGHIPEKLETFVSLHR"}, "[2]": {"biological_target": "NEDD8-Fluor568CRL2FEM1C (human) (UniProt Q15843)"}, "[3]": {"biological_target": "NEDD8-Fluor568CRL2FEM1C (human) (UniProt Q15843)", "assay": "other fluorescence titration"}, "[4]": {"biological_target": "neddylated Fluor568CRL2VHL (human) (UniProt Q15843)"}, "[5]": {"biological_target": "NEDD8-Fluor568CRL2FEM1C (human) (UniProt Q15843)", "assay": "other fluorescence titration; environmental perturbation of the Fluor568 dye: unlabelled UBE2R2 titrated into 25 or 50 nM NEDD8-Fluor568CRL2FEM1C; 30 mM Tris pH 7.5, 100 mM NaCl, BSA; one-site binding fit"}, "[6]": {"biological_target": "NEDD8-Fluor568CRL2FEM1C (human) (UniProt Q15843)", "assay": "other fluorescence titration; environmental perturbation of the Fluor568 dye: unlabelled UBE2R2 or UBE2R2C93K-ubiquitin titrated into 25 or 50 nM NEDD8-Fluor568CRL2FEM1C; 30 mM Tris pH 7.5, final 50 mM NaCl, BSA; one-site binding fit"}, "[7]": {"biological_target": "neddylated ^Fluor568CRL2^FEM1C (human) (UniProt Q13617)", "assay": "other fluorescence titration; environmental perturbation of Alexa Fluor 568 on neddylated ^Fluor568CRL2^FEM1C (25 or 50 nM); unlabeled UBE2R2 titrated; reaction buffer at ionic strength of 50 mM; one-site model"}, "[8]": {"biological_target": "NEDD8-Fluor568CUL2-RBX1 (human) (UniProt Q15843)", "assay": "FRET or BRET; Fluor647UBE2R2C93K titrated into 25 or 50 nM NEDD8-Fluor568CUL2-RBX1 in solution; 30 mM Tris pH 7.5, 100 mM NaCl, BSA; excitation 575 nm; one-site binding fit"}, "[9]": {"biological_target": "NEDD8-Fluor568CUL2-RBX1 (human) (UniProt Q15843)", "assay": "FRET or BRET; Fluor647UBE2R2C93K titrated into 25 or 50 nM NEDD8-Fluor568CUL2-RBX1 in solution; 30 mM Tris pH 7.5, final 50 mM NaCl, BSA; excitation 575 nm; one-site binding fit"}}}
{"substance": "E88R UBE2R2 (from UniProt Q712K3 1-238) (enzyme)", "values": [{"measurement": "catalytic efficiency of Sil1 peptide priming with neddylated CRL2^FEM1C, against wild type", "setting": "[1]", "value": 300, "unit": "fold"}]}
{"substance": "UBE2G1 (from UniProt P62253 1-170) (enzyme)", "values": [{"measurement": "Table S1: Km of the UCE for the CRL complex; ubiquitin priming of Sil1 peptide, UBE2G1 (K0 ubiquitin) with unlabelled neddylated CRL2FEM1C, Michaelis-Menten fit", "setting": "[2]", "value": 1.14, "unit": "µM"}]}
{"substance": "UBE2R2C93K-ubiquitin (from UniProt Q712K3 1-238; P0CG48 1-76) (complex)", "values": [{"measurement": "Kd", "setting": "[3]", "value": 50, "unit": "nM"}]}
{"substance": "ARIH1 (from UniProt Q9Y4X5 1-557) (enzyme)", "values": [{"measurement": "Table S1: Km of the UCE for the CRL complex; ubiquitin priming of Sil1 peptide, ARIH1 (with UBE2L3, K0 ubiquitin) with unlabelled neddylated CRL2FEM1C, Michaelis-Menten fit", "setting": "[2]", "value": 0.143, "unit": "µM"}, {"measurement": "Table S1: Km of the UCE for the CRL complex; ubiquitin priming of Hif1α peptide, ARIH1 (with UBE2L3, K0 ubiquitin) with unlabelled neddylated CRL2VHL, Michaelis-Menten fit", "setting": "[4]", "value": 0.151, "unit": "µM"}]}
{"substance": "UBE2R2 (wild-type, unlabeled) (from UniProt Q712K3 1-238) (enzyme)", "values": [{"measurement": "Kd", "setting": "[5]", "value": 156, "unit": "nM"}, {"measurement": "Kd", "setting": "[6]", "value": 44, "unit": "nM"}]}
{"substance": "UBE2R2 (wild type, unlabeled) (from UniProt Q712K3 1-238) (enzyme)", "values": [{"measurement": "fold decrease of Kd against neddylated CUL2-RBX1 alone", "setting": "[7]", "value": 7, "unit": "fold"}]}
{"substance": "Fluor647UBE2R2C93K (from UniProt Q712K3 1-238) (enzyme)", "values": [{"measurement": "Kd", "setting": "[8]", "value": 1140, "unit": "nM"}, {"measurement": "Kd", "setting": "[9]", "value": 276, "unit": "nM"}]}
{"substance": "UBE2D3 (from UniProt P61077 1-147) (enzyme)", "values": [{"measurement": "Table S1: Km of the UCE for the CRL complex; ubiquitin priming of Sil1 peptide, UBE2D3 (K0 ubiquitin) with unlabelled neddylated CRL2FEM1C, Michaelis-Menten fit", "setting": "[2]", "value": 0.916, "unit": "µM"}, {"measurement": "Table S1: Km of the UCE for the CRL complex; ubiquitin priming of Hif1α peptide, UBE2D3 (K0 ubiquitin) with unlabelled neddylated CRL2VHL, Michaelis-Menten fit", "setting": "[4]", "value": 6.24, "unit": "µM"}]}
